The results in this text go back to patent publication US20070020327A1.

The target of assay [1] is HLA-A*1101 (human). Description: competition with 125I-labeled standard peptide for purified HLA-A*1101, gel filtration; relative binding. On the technique in general: In gel filtration, larger molecules generally elute earlier.
The target in assay [2] is HLA-A*0201 (human). Kind of assay: inhibition of 125I-standard peptide binding to purified HLA, gel filtration.
For assay [3], the target named is HLA-A*0203 (human). Described as above.
Assay [4] addresses HLA-A*6802 (human). Described as above.
Assay [5] concerns the target HLA-A*6802 (human). Kind of assay: competition for purified HLA with 125I-labelled standard peptide 1072.34 [..] as competitor, gel filtration. The conditions noted are these: scale: ratio.
The target of assay [6] is HLA-A*0202 (human). Description: competition for purified HLA with 125I-labelled standard peptide 941.01 [..] as competitor, gel filtration. The conditions noted are these: scale: ratio.
In assay [7] the target is HLA-A*0201 (human). Described as above. The conditions noted are these: scale: ratio.
Assay [8] addresses HLA-A*0203 (human). Described as above. The conditions noted are these: scale: ratio.
Assay [9] addresses HLA-A*0101 molecule, purified from cell lysates (human). Description: competition with 125I-labelled standard peptide for purified HLA-A*0101, gel filtration.
The target in assay [10] is HLA-A*0202 (human). Kind of assay: competition with 125I-labelled standard peptide for purified HLA, gel filtration; ratio = IC50 standard / IC50 test peptide.
For assay [11], the target named is HLA-A*0206 (human). The assay is described as above.
Assay [12] deals with HLA-A*0201 (human). The assay is described as above.
Assay [13] deals with HLA-A*0203 (human). The description is as above.
Assay [14] deals with HLA-A*6802 (human). The description is as above.
The target of assay [15] is HLA-A*0202 (human). Kind of assay: competitive inhibition of 125I-labelled standard peptide binding to purified HLA, gel filtration.
Assay [16] addresses HLA-A*0206 (human). The assay is described as above.
Assay [17] has as its target HLA-A*6802 (human). The description is as above.
Assay [18] has as its target HLA-A*1101 (human). Kind of assay: inhibition of 125I-labeled probe peptide binding to purified HLA-A*1101, gel filtration; relative to standard peptide 940.06.
For assay [19], the target named is HLA-A*3301 (human). Kind of assay: competition with 125I-labelled standard peptide for purified HLA, gel filtration. The conditions noted are these: scale: ratio.
For assay [20], the target named is HLA-A*1101 (human). The assay is described as above. The conditions noted are these: scale: ratio.
The target of assay [21] is HLA-A*6801 (human). The description is as above. The conditions noted are these: scale: ratio.
Assay [22] deals with HLA-A*0301 (human). The assay is described as above. The conditions noted are these: scale: ratio.
Assay [23] concerns the target HLA-A*1101 (human). Description: competition with 125I-labelled standard peptide 940.06 ([..], IC50 […] nM) for purified HLA-A*1101; gel filtration.
In assay [24] the target is HLA-A*0201 (purified HLA class I molecule) (human). Description: competition with 125I-labelled standard peptide for purified HLA, gel filtration.
Assay [25] deals with HLA-A*0206 (purified HLA class I molecule) (human). The description is as above.
Assay [26] concerns the target HLA-A*0203 (purified HLA class I molecule) (human). Described as above.
The target in assay [27] is HLA-A*0202 (purified HLA class I molecule) (human). The assay is described as above.
The target of assay [28] is HLA-A*0101 (human). Kind of assay: inhibition of 125I-labeled standard peptide 944.02 binding to purified HLA-A*0101, gel filtration.
The target of assay [29] is HLA-A*0202 (human). Kind of assay: competition binding to purified HLA, 125I-labelled standard peptide, gel filtration; ratio = IC50 standard / IC50 test peptide. The conditions noted are these: remark: other sources report otherwise.
For assay [30], the target named is HLA-A*0206 (human). The description is as above. The conditions noted are these: remark: other sources report otherwise.
Assay [31] has as its target HLA-A*0201 (human). The description is as above.
For assay [32], the target named is HLA-A*0203 (human). Described as above.
The target in assay [33] is HLA-A*0301 (human). Description: competition with 125I-labelled probe peptide for purified HLA-A*0301, gel filtration.
The target of assay [34] is HLA-A*1101 (human). Kind of assay: competition with a 125I-labelled probe peptide for purified HLA-A*1101, gel filtration; value relative to the standard peptide.
In assay [35] the target is HLA-B*0702 (human). Kind of assay: competition with 125I-labeled standard peptide (1075.23 [..]) for purified HLA-B*0702, gel filtration.
For assay [36], the target named is HLA-A*0301 (human). Kind of assay: competition with 125I-labelled standard peptide for purified HLA-A*0301, gel filtration; relative binding.
Assay [37] addresses HLA-A*0206 (human). Description: inhibition of 125I-standard peptide binding to purified HLA, gel filtration.
Assay [38] concerns the target HLA-A*0206 (human). Kind of assay: competition with 125I-labelled standard peptide 941.01 ([..]) for purified HLA-A*0206, gel filtration.
The target in assay [39] is HLA-A*0201 (human). Description: competition with 125I-labelled standard peptide 941.01 ([..]) for purified HLA-A*0201, gel filtration.
Assay [40] concerns the target HLA-A*0202 (human). Description: competition with 125I-labelled standard peptide 941.01 ([..]) for purified HLA-A*0202, gel filtration.
Setting [41] is: remark: other sources report otherwise.

On to KGEYFVEMY (modifications not checked) [PAP 322 …], for which, in [1] (setting [41]), the binding affinity ratio (IC50 of standard peptide / IC50 of test peptide) came to 0.0002.
Regarding LLSNDMCA (modifications not checked) [Kallikrein 178 LLSNDMCA], the results for the binding affinity ratio (IC50 standard peptide / IC50 test peptide) (ratio to standard peptide) in [2], in assay [3] and in [4] were 0.0003, 0.0003 and -0.0001, respectively.
With GVLVHPQWVLT (modifications not checked) [… (Kallikrein position 52 / PSA position 48, 11-mer)], the binding affinity ratio in [5] is -0.0001; in [6] it was 0.0005; in [7], 0.0002; in assay [8], 0.0005.
In the case of GMPEGDLVY (modifications not checked) [PSM peptide … (position 168, 9 amino acids)], in assay [9], the binding affinity ratio (IC50 of the standard peptide / IC50 of the test peptide) was 0.0001.
Take QVHPQKVT (modifications not checked) [PSA peptide QVHPQKVT, position 182, 8 amino acids]: the binding affinity ratio (ratio to standard peptide) in [10] is -0.0001; in assay [11], -0.0001; in assay [12] it was -0.0001; in [13], 0.0001; in [14] it was -0.0001.
Regarding KITDVVKV (modifications not checked) [KITDVVKV (Kallikrein, position 131)], the binding affinity ratio (ratio to standard peptide) in assay [15] is 0.0002; in [16], 0.0002; in assay [17], -0.0001.
Turning to DALFDIESK (modifications not checked) [PSM peptide … (position 710, 9 amino acids)], the binding affinity ratio (IC50 of standard peptide / IC50 of test peptide) in assay [18] was 0.0002.
Consider PAELTDAVK (modifications not checked) [… (PSA, position 125)], for which the binding affinity ratio worked out at 0.0006 in [19], 0.0002 in assay [20], 0.0001 in assay [21] and 0.0002 in assay [22].
Take PANEYAYRR (modifications not checked) [PSM.273 peptide …]: the binding affinity ratio (IC50 of standard peptide / IC50 of test peptide) in assay [23] came out at 0.0002.
On to MLCAGRWT (modifications not checked) [PSA peptide MLCAGRWT (position 192, 8 amino acids)], for which the binding affinity ratio (IC50 of standard peptide / IC50 of test peptide) in assay [24] is 0.0006; in assay [25] it was -0.0001; in assay [26], 0.0033; in [27], 0.0012.
LAGAKGVILY (modifications not checked) [PSM 219 …]: the binding affinity ratio (IC50 of standard peptide / IC50 of test peptide) in assay [1] was determined as 0.0002.
PSLYTKVVHY (modifications not checked) [PSA 236 peptide …]: in assay [28], the binding affinity ratio (IC50 of the standard peptide / IC50 of the test peptide) was 0.001.
Turning to DLPTQEPALGT (modifications not checked) [… (PSA, position 136, 11 amino acids)], the binding affinity ratio in assay [29] was determined as 0.018; in [30], 0.0001; in assay [31] (setting [41]), 0.0041; in assay [32] (setting [41]), 0.01.
On to PANEYAYRR (modifications not checked) [PSM 273 peptide …], for which the binding affinity ratio (IC50 of the standard peptide / IC50 of the test peptide) in [33] turned out to be 0.0001.
On to ETYELVEKFY (modifications not checked) [PSM peptide … (position 557, 10 amino acids)], for which the binding affinity ratio (IC50 of standard peptide / IC50 of test peptide) in assay [34] amounted to 0.0002.
For the molecule YPNKTHPNY (modifications not checked) [PSM peptide … (position 119, 9 amino acids)], the binding affinity ratio (IC50 of standard peptide / IC50 of test peptide) in [35] was 0.0001.
Take GFFLLGFLF (modifications not checked) [PSM peptide … (PSM position 31, 9 amino acids)]: the binding affinity ratio (IC50 of the standard peptide / IC50 of the test peptide) in assay [36] was found to be 0.0005.
For CSPSCPLER (modifications not checked) [PAP peptide … (position 347, 9 amino acids)], the binding affinity ratio (IC50 of standard peptide / IC50 of test peptide) in [18] turned out to be 0.0006.
As to LLRLSEPAKIT (modifications not checked) [Kallikrein 123 …], the binding affinity ratio (IC50 standard peptide / IC50 test peptide) (ratio to standard peptide) in assay [37] is -0.0001; in [2], 0.0002; in assay [4], -0.0001.
In the case of DTCGGDSGGPL (modifications not checked) [… (Kallikrein, position 207, 11 amino acids)], the binding affinity ratio in assay [31] turned out to be 0.0001; in assay [32], 0.0005.
As for ESYKHEQVY (modifications not checked) [PAP peptide … (position 95, 9 amino acids)], the binding affinity ratio (IC50 of standard peptide / IC50 of test peptide) in [34] (setting [41]) is 0.0002.
As to TTCYASGWGSI (modifications not checked) [Kallikrein (hK2) peptide … (position 150, 11 amino acids); the same letters in PSA at position 146], the binding affinity ratio (IC50 of standard peptide / IC50 of test peptide) in [38] was 0.0005; in assay [39], -0.0001; in assay [40], 0.0009.
